PMC2896269
“And” between values parts separate entries of the source, which are not always exact repeats. Equal entries are not always repeated.

Legend:
HA-LRRTM2 = HA-LRRTM2 (UniProt Q8BGA3); assay: immunostaining of cells or tissue
LRRTM2 = LRRTM2 (UniProt O43300); settings: cited from earlier work
Sequence of LRRTM2 (O43300 34-422): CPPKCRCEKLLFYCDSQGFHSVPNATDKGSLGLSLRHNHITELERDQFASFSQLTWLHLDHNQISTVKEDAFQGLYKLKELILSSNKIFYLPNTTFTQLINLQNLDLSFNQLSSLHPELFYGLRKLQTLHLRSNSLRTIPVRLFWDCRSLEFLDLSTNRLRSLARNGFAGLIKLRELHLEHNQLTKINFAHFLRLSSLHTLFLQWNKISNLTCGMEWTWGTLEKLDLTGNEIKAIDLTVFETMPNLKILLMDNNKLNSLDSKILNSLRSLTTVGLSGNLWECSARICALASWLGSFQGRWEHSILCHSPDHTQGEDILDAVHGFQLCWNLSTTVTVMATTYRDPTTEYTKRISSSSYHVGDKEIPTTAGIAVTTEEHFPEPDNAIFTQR

Sequence of Neurexin-1beta(-S4) (P58400 91-289): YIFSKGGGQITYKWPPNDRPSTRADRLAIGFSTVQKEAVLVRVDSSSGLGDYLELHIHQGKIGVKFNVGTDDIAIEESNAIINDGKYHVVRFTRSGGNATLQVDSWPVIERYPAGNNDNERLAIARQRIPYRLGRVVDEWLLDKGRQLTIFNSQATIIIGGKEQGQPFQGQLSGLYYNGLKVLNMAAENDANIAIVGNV
Sequence of HA-LRRTM2 (Q8BGA3 34-515): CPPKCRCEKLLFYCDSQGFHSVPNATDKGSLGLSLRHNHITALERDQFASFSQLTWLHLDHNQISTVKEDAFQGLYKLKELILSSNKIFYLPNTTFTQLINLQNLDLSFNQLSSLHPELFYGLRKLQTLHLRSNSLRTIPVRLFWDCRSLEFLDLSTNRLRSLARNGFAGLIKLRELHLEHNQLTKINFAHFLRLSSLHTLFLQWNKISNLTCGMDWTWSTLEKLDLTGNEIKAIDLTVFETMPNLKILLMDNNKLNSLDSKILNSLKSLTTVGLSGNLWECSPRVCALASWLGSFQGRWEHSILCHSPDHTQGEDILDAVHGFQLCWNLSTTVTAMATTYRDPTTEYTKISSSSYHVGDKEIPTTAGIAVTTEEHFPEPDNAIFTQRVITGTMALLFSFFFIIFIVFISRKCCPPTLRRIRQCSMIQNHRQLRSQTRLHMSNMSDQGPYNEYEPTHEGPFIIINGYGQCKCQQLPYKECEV

Kd (HA-LRRTM2) [nM]	Substance	Kd (LRRTM2)
19.9	Nrx1β(−S4)-Fc (Fc fusion)	–
–	Neurexin-1beta(-S4) (from UniProt P58400)	7 nM and 5.8 nM
